The experiment addresses T1, RNA polymerase II CTD tetraheptad CTD (UniProt P24928, CTD Ser5 phosphorylation).
T1 chain: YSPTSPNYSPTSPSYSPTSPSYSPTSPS
Kind of experiment: guanylyltransferase stimulation assay.

B1: Mce (protein)
chain: not shown
With B1, the Kd (as a rule, a measure of binding affinity in units of concentration) was determined as 1500 nM.

(Values after PMC3142331 (2011).)
